Data as given in US20240117018A1.

Tests used:
Test in all cases: cell-based or functional assay
[1] = molecular target: HIV-1 Env pseudovirus T255-34 (HIV-1)
[2] = molecular target: HIV-1 Env pseudovirus X1632_S2_B10 (HIV-1)
[3] = molecular target: HIV-1 Env of pseudovirus CAP210.2.00.E8 (HIV-1)
[4] = molecular target: HIV-1 Env pseudovirus 211-9 (HIV-1)
[5] = molecular target: HIV-1 Env of pseudovirus 1394C9G1(Rev-) (HIV-1)
[6] = molecular target: HIV-1 Env pseudovirus 6545.v4.c1 (HIV-1)
[7] = molecular target: HIV-1 Env of pseudovirus 1056_10_TA11_1826 (HIV-1)
[8] = molecular target: HIV-1 Env pseudovirus R1166.c01 (HIV-1)
[9] = molecular target: HIV-1 Env of pseudovirus CNE52 (HIV-1)
[10] = molecular target: HIV-1 Env pseudovirus 3817.v2.c59 (HIV-1)
[11] = molecular target: HIV-1 Env of pseudovirus AC10.0.29 (HIV-1)
[12] = molecular target: HIV-1 Env pseudovirus X1254_c3 (HIV-1)
[13] = molecular target: HIV-1 Env of pseudovirus Q842.d12 (HIV-1)
[14] = molecular target: HIV-1 Env of pseudovirus ZM247v1(Rev-) (HIV-1)

| Substance | IC50 [3] [µg/mL] | IC80 [3] [µg/mL] | IC50 [5] [µg/mL] | IC80 [5] [µg/mL] | IC50 [7] [µg/mL] | IC80 [7] [µg/mL] | IC50 [9] [µg/mL] | IC80 [9] [µg/mL] | IC50 [11] [µg/mL] | IC80 [11] [µg/mL] | IC50 [13] [µg/mL] | IC80 [13] [µg/mL] | IC50 [14] [µg/mL] | IC80 [14] [µg/mL] | neutralization IC50 [3] [µg/mL] | neutralization IC80 [3] [µg/mL] | neutralization IC50 [5] [µg/mL] | neutralization IC80 [5] [µg/mL] | neutralization IC50 [7] [µg/mL] | neutralization IC80 [7] [µg/mL] | other results |
| --- | --- | --- | --- | --- | --- | --- | --- | --- | --- | --- | --- | --- | --- | --- | --- | --- | --- | --- | --- | --- | --- |
| 3BNC117 (antibody) | 17.2 | > 50 | > 50 | > 50 | 0.3 | 1.82 | 0.02 | 0.06 | 13.8 | > 50 | < 0.01 | 0.01 | > 50 | > 50 |  |  |  |  |  |  | IC50 (Titer in TZM.bl cells) [1]: 0.02 µg/mL; IC80 (Titer in TZM.bl cells) [1]: 0.14 µg/mL; IC50 (Titer in TZM.bl cells) [2]: 15.7 µg/mL; IC80 (Titer in TZM.bl cells) [2]: > 50 µg/mL; IC50 (Titer in TZM.bl cells) [4]: 0.35 µg/mL; IC80 (Titer in TZM.bl cells) [4]: 1.28 µg/mL; IC50 (Titer in TZM.bl cells) [6]: > 50 µg/mL; IC80 (Titer in TZM.bl cells) [6]: > 50 µg/mL; IC50 (Titer in TZM.bl cells) [8]: 0.17 µg/mL; IC80 (Titer in TZM.bl cells) [8]: 0.64 µg/mL; IC50 (Titer in TZM.bl cells) [10]: 0.15 µg/mL; IC80 (Titer in TZM.bl cells) [10]: 0.52 µg/mL; IC50 (Titer in TZM.bl cells) [12]: 0.08 µg/mL; IC80 (Titer in TZM.bl cells) [12]: 0.27 µg/mL |
| 8ANC195 (antibody) | > 50 | > 50 | > 50 | > 50 | > 50 | > 50 | 5.59 | 43.1 | 0.88 | 7 | > 30 | > 30 | 3.41 | 25.1 |  |  |  |  |  |  | IC50 (Titer in TZM.bl cells) [1]: 0.54 µg/mL; IC80 (Titer in TZM.bl cells) [1]: 8.09 µg/mL; IC50 (Titer in TZM.bl cells) [2]: 0.47 µg/mL; IC80 (Titer in TZM.bl cells) [2]: 4.11 µg/mL; IC50 (Titer in TZM.bl cells) [4]: 1.34 µg/mL; IC80 (Titer in TZM.bl cells) [4]: 8.43 µg/mL; IC50 (Titer in TZM.bl cells) [6]: 26.9 µg/mL; IC80 (Titer in TZM.bl cells) [6]: > 50 µg/mL; IC50 (Titer in TZM.bl cells) [8]: 4.83 µg/mL; IC80 (Titer in TZM.bl cells) [8]: 4.83 µg/mL; IC50 (Titer in TZM.bl cells) [10]: 1 µg/mL; IC80 (Titer in TZM.bl cells) [10]: 5.3 µg/mL; IC50 (Titer in TZM.bl cells) [12]: 6.95 µg/mL; IC80 (Titer in TZM.bl cells) [12]: 6.95 µg/mL |
| PGDM1400 (antibody) |  |  |  |  |  |  |  |  |  |  |  |  |  |  | 0.034 | 0.514 | < 0.001 | 0.004 | 3.26 | 11.8 | neutralization IC50 [9]: 1.15 µg/mL; neutralization IC80 [9]: 9.97 µg/mL; neutralization IC50 [11]: 0.105 µg/mL; neutralization IC80 [11]: 0.869 µg/mL; neutralization IC50 [13]: < 0.001 µg/mL; neutralization IC80 [13]: 0.002 µg/mL; neutralization IC50 [14]: 0.019 µg/mL; neutralization IC80 [14]: 0.051 µg/mL |
| PGT145 (antibody) |  |  |  |  |  |  |  |  |  |  |  |  |  |  | 37.8 | > 50 | 0.001 | 0.005 | 0.23 | 0.938 | neutralization IC50 [9]: 0.02 µg/mL; neutralization IC80 [9]: 0.091 µg/mL; neutralization IC50 [11]: 0.01 µg/mL; neutralization IC80 [11]: 0.025 µg/mL; neutralization IC50 [13]: 0.032 µg/mL; neutralization IC80 [13]: 0.552 µg/mL; neutralization IC50 [14]: 7.19 µg/mL; neutralization IC80 [14]: > 50 µg/mL |
| PGT151 (antibody) |  |  |  |  |  |  |  |  |  |  |  |  |  |  | 0.01 | 0.208 | 0.022 | 0.733 | 0.008 | 0.048 | neutralization IC50 [9]: 0.004 µg/mL; neutralization IC80 [9]: 0.017 µg/mL; neutralization IC50 [11]: 0.007 µg/mL; neutralization IC80 [11]: 0.023 µg/mL; neutralization IC50 [13]: 0.001 µg/mL; neutralization IC80 [13]: 0.014 µg/mL; neutralization IC50 [14]: 0.009 µg/mL; neutralization IC80 [14]: > 50 µg/mL |
| N49P7.1 (antibody) | 2.03 | 7.3 | 4.37 | 30.9 | 0.171 | 0.603 | 0.021 | 0.058 | 5.31 | 46.8 | 0.028 | 0.08 | 0.038 | 0.176 |  |  |  |  |  |  | MPI [3]: 99; MPI [5]: 88; MPI [7]: 100; MPI [9]: 100; MPI [11]: 85; MPI [13]: 100; MPI [14]: 100 |
